{
  "source": "patent US20250043302A1",
  "about": "“MUTATED HYDROXYPHENYLPYRUVATE DIOXYGENASE POLYPEPTIDE, AND CODING GENE AND USE THEREOF” (BEIJING DABEINONG BIOTECHNOLOGY CO., LTD., priority 2021, published 2025)",
  "format_in_all_cases": "in vivo",
  "key": {"[1]": {"tested_on": "Arabidopsis thaliana T1 plants", "assay": "Isoxaflutole tolerance of transgenic Arabidopsis thaliana T1 plants (spray, bleached leaf area grade, damage score);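 for Scores: Weighted damage index from 0 to 100 where higher means more damage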", "conditions": "for Classification and statistics of the grade of pesticide damage Grade 0 / Classification and statistics of the grade of pesticide damage Grade 1 / Classification and statistics of the grade of pesticide damage Grade 2 / Classification and statistics of the grade of pesticide damage Grade 3: number of plants in grade", "outline": "(§1)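 Damage was assessed by bleaching grade (0 none; 1 <50%; 2 >50%; 3 100% of leaf area) one week after spraying. Sprays on 18-day-old T1 and wild-type plants used field-rate multiples: topramezone 25–200, isoxaflutole 35–280, mesotrione 52.5–420 g ai/ha.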"}, "[2]": {"tested_on": "Arabidopsis thaliana T1 plants", "assay": "Topramezone tolerance of transgenic Arabidopsis thaliana T1 plants (spray, bleached leaf area grade, damage score)", "conditions": "Table 13; for Classification and statistics of the grade of pesticide damage Grade 0: number of plants at grade 0; for Classification and statistics of the grade of pesticide damage Grade 1: number of plants at grade 1; for Classification and statistics of the grade of pesticide damage Grade 2: number of plants at grade 2; for Classification and statistics of the grade of pesticide damage Grade 3: number of plants at grade 3; for Scores: pesticide damage score", "outline": "as §1"}, "[3]": {"tested_on": "Arabidopsis thaliana T1 plants", "assay": "Mesotrione tolerance of transgenic Arabidopsis thaliana T1 plants (spray, bleached leaf area grade, damage score)", "set-up": "Scores: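 damage score 0-100 computed as Σ(N×S)/(T×M)×100 over grades 0-3 with higher meaning more damage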", "conditions": "for Classification and statistics of the grade of pesticide damage Grade 0 / Classification and statistics of the grade of pesticide damage Grade 1 / Classification and statistics of the grade of pesticide damage Grade 2 / Classification and statistics of the grade of pesticide damage Grade 3: number of plants in grade", "outline": "as §1"}},
  "data": [
    {"molecule": "AtHPPDm-F372A-F383Y-02: nucleotide sequence encoding Arabidopsis thaliana HPPD with F372A+F383Y; vector DBN11798 (nucleic acid, AtHPPDm-F372A-F383Y-02 Nucleotide Sequence, vector DBN11798) DNA: ATGGGACATCAGAATGCTGCTGTATCAGAAAATCAAAATCATGATGATGGAGCCGCCTCCTCACCAGGGTTTAAGTTGGTTGGGTTCTCCAAGTTTGTACGGAAGAACCCAAAATCCGACAAGTTCAAGGTTAAACGCTTCCACCACATTGAATTCTGGTGCGGCGACGCCACCAATGTTGCTCGGCGTTTTTCATGGGGTTTAGGCATGAGATTCTCAGCAAAGAGTGACCTGAGCACCGGCAACATGGTTCATGCTAGCTATCTCTTAACATCTGGAGATTTGAGGTTTCTTTTCACGGCGCCGTACTCACCATCACTCTCCGCCGGCGAGATCAAACCCACCACGACTGCAAGCATACCTTCATTTGATCATGGTAGTTGCAGATCCTTCTTCTCGTCGCACGGCCTAGGGGTGCGCGCGGTCGCCATCGAAGTTGAAGATGCAGAATCAGCGTTTAGTATCAGCGTGGCAAATGGAGCTATTCCTTCCTCCCCTCCAATTGTCCTCAATGAGGCTGTAACTATTGCCGAGGTGAAGTTGTATGGAGATGTTGTGCTGAGATATGTTTCTTACAAGGCAGAGGACACTGAGAAATCTGAATTTTTGCCTGGTTTTGAAAGGGTCGAGGATGCTTCAAGTTTTCCTCTTGATTACGGCATACGACGGTTGGATCACGCGGTTGGAAATGTACCAGAACTTGGGCCGGCGCTCACTTATGTGGCTGGTTTCACTGGATTCCATCAATTTGCTGAGTTCACAGCTGATGATGTTGGGACTGCTGAAAGTGGGTTGAACTCTGCAGTCCTCGCCTCTAATGATGAAATGGTGCTCCTCCCGATCAACGAGCCTGTGCATGGCACCAAAAGGAAATCACAAATACAGACATATCTTGAGCACAATGAAGGTGCAGGGCTTCAACATCTTGCACTGATGTCTGAAGACATTTTCCGTACGCTGAGAGAGATGAGGAAGAGAAGTAGTATTGGTGGATTTGACTTCATGCCTTCTCCCCCACCAACTTACTACCAGAACTTGAAGAAGAGGGTTGGTGATGTGCTATCTGATGACCAGATCAAGGAGTGTGAAGAATTGGGCATTCTTGTTGATCGGGACGACCAAGGAACATTACTGCAGATAGCCACAAAACCACTTGGTGACCGCCCCACTATTTATATTGAGATCATACAAAGAGTCGGCTGCATGATGAAGGATGAGGAAGGAAAAGCATATCAATCTGGTGGTTGTGGCGGCTTTGGGAAAGGAAACTTCTCTGAGCTGTTCAAATCCATCGAGGAGTATGAGAAGACCTTGGAGGCCAAGCAGCTCGTGGGTTGA", "values": [
      {"measurement": "Resistance evaluation", "setting": "[1]; isoxaflutole 35 g ai/ha", "result": "Poorly"},
      {"measurement": "Scores", "setting": "[1]; isoxaflutole 35 g ai/ha", "result": 56},
      {"measurement": "Classification and statistics of the grade of pesticide damage Grade 0", "setting": "[1]; isoxaflutole 35 g ai/ha", "result": 0},
      {"measurement": "Classification and statistics of the grade of pesticide damage Grade 1", "setting": "[1]; isoxaflutole 35 g ai/ha", "result": 9},
      {"measurement": "Classification and statistics of the grade of pesticide damage Grade 2", "setting": "[1]; isoxaflutole 35 g ai/ha", "result": 3},
      {"measurement": "Classification and statistics of the grade of pesticide damage Grade 3", "setting": "[1]; isoxaflutole 35 g ai/ha", "result": 4},
      {"measurement": "Resistance evaluation", "setting": "[1]; isoxaflutole 70 g ai/ha", "result": "Non-resistant"},
      {"measurement": "Scores", "setting": "[1]; isoxaflutole 70 g ai/ha", "result": 100},
      {"measurement": "Classification and statistics of the grade of pesticide damage Grade 0", "setting": "[1]; isoxaflutole 70 g ai/ha", "result": 0},
      {"measurement": "Classification and statistics of the grade of pesticide damage Grade 1", "setting": "[1]; isoxaflutole 70 g ai/ha", "result": 0},
      {"measurement": "Classification and statistics of the grade of pesticide damage Grade 2", "setting": "[1]; isoxaflutole 70 g ai/ha", "result": 0},
      {"measurement": "Classification and statistics of the grade of pesticide damage Grade 3", "setting": "[1]; isoxaflutole 70 g ai/ha", "result": 16},
      {"measurement": "Resistance evaluation", "setting": "[2]; topramezone 25 g ai/ha (1×)", "result": "Poorly"},
      {"measurement": "Classification and statistics of the grade of pesticide damage Grade 0", "setting": "[2]; topramezone 25 g ai/ha (1×)", "result": 4},
      {"measurement": "Classification and statistics of the grade of pesticide damage Grade 1", "setting": "[2]; topramezone 25 g ai/ha (1×)", "result": 4},
      {"measurement": "Classification and statistics of the grade of pesticide damage Grade 2", "setting": "[2]; topramezone 25 g ai/ha (1×)", "result": 8},
      {"measurement": "Classification and statistics of the grade of pesticide damage Grade 3", "setting": "[2]; topramezone 25 g ai/ha (1×)", "result": 0},
      {"measurement": "Scores", "setting": "[2]; topramezone 25 g ai/ha (1×)", "result": 42},
      {"measurement": "Resistance evaluation", "setting": "[2]; topramezone 100 g ai/ha (4×)", "result": "Non-resistant"},
      {"measurement": "Classification and statistics of the grade of pesticide damage Grade 0", "setting": "[2]; topramezone 100 g ai/ha (4×)", "result": 0},
      {"measurement": "Classification and statistics of the grade of pesticide damage Grade 1", "setting": "[2]; topramezone 100 g ai/ha (4×)", "result": 0},
      {"measurement": "Classification and statistics of the grade of pesticide damage Grade 2", "setting": "[2]; topramezone 100 g ai/ha (4×)", "result": 4},
      {"measurement": "Classification and statistics of the grade of pesticide damage Grade 3", "setting": "[2]; topramezone 100 g ai/ha (4×)", "result": 12},
      {"measurement": "Scores", "setting": "[2]; topramezone 100 g ai/ha (4×)", "result": 92},
      {"measurement": "Resistance evaluation", "setting": "[3]; mesotrione 52.5 g ai/ha", "result": "Poorly resistant"},
      {"measurement": "Scores", "setting": "[3]; mesotrione 52.5 g ai/ha", "result": 63},
      {"measurement": "Classification and statistics of the grade of pesticide damage Grade 0", "setting": "[3]; mesotrione 52.5 g ai/ha", "result": 0},
      {"measurement": "Classification and statistics of the grade of pesticide damage Grade 1", "setting": "[3]; mesotrione 52.5 g ai/ha", "result": 5},
      {"measurement": "Classification and statistics of the grade of pesticide damage Grade 2", "setting": "[3]; mesotrione 52.5 g ai/ha", "result": 8},
      {"measurement": "Classification and statistics of the grade of pesticide damage Grade 3", "setting": "[3]; mesotrione 52.5 g ai/ha", "result": 3},
      {"measurement": "Resistance evaluation", "setting": "[3]; mesotrione 105 g ai/ha", "result": "Non-resistant"},
      {"measurement": "Scores", "setting": "[3]; mesotrione 105 g ai/ha", "result": 100},
      {"measurement": "Classification and statistics of the grade of pesticide damage Grade 0", "setting": "[3]; mesotrione 105 g ai/ha", "result": 0},
      {"measurement": "Classification and statistics of the grade of pesticide damage Grade 1", "setting": "[3]; mesotrione 105 g ai/ha", "result": 0},
      {"measurement": "Classification and statistics of the grade of pesticide damage Grade 2", "setting": "[3]; mesotrione 105 g ai/ha", "result": 0},
      {"measurement": "Classification and statistics of the grade of pesticide damage Grade 3", "setting": "[3]; mesotrione 105 g ai/ha", "result": 16}
    ]}
  ]
}
